Results from publication PMC4742702 (mBio, 2016).

Assays:
[1] = target: trypsin-cleaved Tuc2009 RBP head domain (in the nano-L06 complex) (Lactococcus phage Tuc2009); assay: crystal structure
[2] = target: serendipitously cleaved BppL head domain (residues 52 to 173) in the tripod crystal (Lactococcus phage Tuc2009); assay: crystal structure
[3] = target: Tuc2009 BppL (RBP) as in the tripod (Lactococcus phage Tuc2009); assay: crystal structure
[4] = target: BppUct (C-terminal portion of Tuc2009 BppU, residues 194 to 322) (Lactococcus phage Tuc2009); assay: crystal structure
[5] = target: T1, phage Tuc2009 receptor binding protein (RBP, BppL, ORF53) (Lactococcus phage Tuc2009); assay: BLI
T1 chain: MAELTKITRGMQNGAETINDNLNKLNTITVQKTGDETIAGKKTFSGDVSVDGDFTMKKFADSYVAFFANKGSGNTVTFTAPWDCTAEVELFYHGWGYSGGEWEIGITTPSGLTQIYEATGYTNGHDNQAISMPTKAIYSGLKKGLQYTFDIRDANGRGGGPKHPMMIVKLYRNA

[6] = target: T2, Tuc2009 tripod BppUctAL complex (BppUct/BppA/BppL) (Lactococcus phage Tuc2009); assay: BLI
T2 chain 1: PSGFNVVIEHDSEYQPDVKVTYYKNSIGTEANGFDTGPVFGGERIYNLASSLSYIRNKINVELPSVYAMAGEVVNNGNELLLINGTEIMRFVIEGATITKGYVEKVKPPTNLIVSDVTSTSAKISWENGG
T2 chain 2: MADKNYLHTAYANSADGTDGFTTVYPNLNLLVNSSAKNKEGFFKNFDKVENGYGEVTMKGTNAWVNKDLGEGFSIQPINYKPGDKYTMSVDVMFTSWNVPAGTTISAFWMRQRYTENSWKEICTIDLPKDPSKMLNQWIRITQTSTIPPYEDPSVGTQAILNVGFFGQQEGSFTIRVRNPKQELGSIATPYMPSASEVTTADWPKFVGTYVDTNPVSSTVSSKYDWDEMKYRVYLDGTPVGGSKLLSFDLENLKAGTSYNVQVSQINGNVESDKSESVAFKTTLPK
T2 chain 3: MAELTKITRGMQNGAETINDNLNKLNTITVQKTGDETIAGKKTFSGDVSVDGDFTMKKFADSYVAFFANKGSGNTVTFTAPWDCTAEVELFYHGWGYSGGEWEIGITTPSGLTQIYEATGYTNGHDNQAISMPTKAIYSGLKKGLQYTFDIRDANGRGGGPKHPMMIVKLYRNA

trypsin-cleaved Tuc2009 RBP head domain (in the nano-L06 complex) (domain or fragment)
stoichiometry N [1]: 3

serendipitously cleaved BppL head domain (residues 52 to 173) in the tripod crystal (domain or fragment)
stoichiometry N [2]: 3

Tuc2009 BppL (RBP) as in the tripod (natural protein)
stoichiometry N [3]: 3

BppUct (C-terminal portion of Tuc2009 BppU, residues 194 to 322) (domain or fragment)
stoichiometry N [4]: 3

B1: nanobody nano-L06 (VHH)
VHH: QVQLVESGGGSVQAGGSLRLSCTASGFTFDDSDMGWYHQAPGNECELVSAIFSDGSTYYADSVKGRFTISRDNAKNTVYLQMNSLKPEDTAMYYCAAATTTVASPPVRHVCNGYWGQGTQVTVSS
Kd [5]: 9.1 ± 0.7 nM | Kd [6]: 9.1 ± 0.6 nM
